Results reported in patent US20240352438A1, “MEANS AND METHODS FOR DETOXIFYING OCHRATOXIN A” (DSM Austria GmbH, priority 2021, published 2024).
Positions count from the first letter of the chain named.

B1: 89 (protein)
chain: MTTRTRILTAFLSLLAANACAADAAPAAPHTVVLRAARMFDGASGKLVDHPQLTIVGNKIVRIAQGDKAEVPAGAEVVDLGDATLLPGFIDAHVHLSGQSSDNWYGDFFDNMMRFPAEQALYGAYYARITLEAGFTSVRDVGSTDWVALGLRNAIDAGKVPGPRMLVSNYAVGSTGGHADQDPIPPHKLPLAGPLQGVCNGPEECRAAVRYQIKYGANVIKFMPSGGVLSLSDPVDAPELSQDEMNAVIGESHAWGRKVAAHAHGDKAAKMAVAAGVDSIEHGSFIEDDTLRAMKAKNVYLVPTISAIAHIEEKIGTFPPVIAEKGRAAAAHLRQTFRHAVQIGVPIALGTDAGVGAHGSNAREFRYMVENGLTPAQALLAGTANAARLLGTFDRVGTLEAGKLADVVAVPGNPIADITVTERPLFVMKDGVVVRRDAVR
modifications: exemplary polypeptide
B2: 125 (protein)
chain: B1 chain with I311V, F318Y
modifications: exemplary polypeptide
B3: 106 (protein)
chain: B1 chain with H187N, I311V
modifications: exemplary polypeptide
B4: 96 (protein)
chain: B1 chain with I311V, V355I
modifications: exemplary polypeptide
B5: 121 (protein)
chain: B1 chain with F109Y, I311V
modifications: exemplary polypeptide
B6: 105 (protein)
chain: B1 chain with H187Q, I311V
modifications: exemplary polypeptide
B7: 108 (protein)
chain: B1 chain with H310N, I311V
modifications: exemplary polypeptide
B8: 122 (protein)
chain: B1 chain with Q242P, I311V
modifications: exemplary polypeptide
B9: 124 (protein)
chain: B1 chain with I311V, T317Y
modifications: exemplary polypeptide
B10: 120 (protein)
chain: B1 chain with Y126W, I311V
modifications: exemplary polypeptide
B11: 95 (protein)
chain: B1 chain with I311V, V355L
modifications: exemplary polypeptide
B12: 107 (protein)
chain: B1 chain with H310Q, I311V
modifications: exemplary polypeptide
B13: 103 (protein)
chain: B1 chain with I184V, I311V
modifications: exemplary polypeptide
B14: 91 (protein)
chain: B1 chain with I311V, F318L
modifications: exemplary polypeptide
B15: 113 (protein)
chain: B1 chain with E287Q, I311V
modifications: exemplary polypeptide
B16: 111 (protein)
chain: B1 chain with I311V, H332Q
modifications: exemplary polypeptide
B17: 119 (protein)
chain: B1 chain with Y122R, I311V
modifications: exemplary polypeptide

Assay: OTA detoxification activity assay (specific activity, fluorescence reduction ex/em 390/450 nm)
Type: biochemical
Conditions: pH 6.0; SEQ ID NO: 1 = 100%
Summary of the method: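 Recombinant enzyme preparation with 200 ng/mL OTA in 100 mM sodium phosphate, at pH 6.0 and pH 7.5, 37° C. Degradation followed as the fall in fluorescence at ex/em 390/450 nm. Specific activity taken from the initial linear slope; one unit degrades 1 μmol OTA per min at a starting OTA of […].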

Point of comparison: B4, “Specific OTA detoxification activities in % compared to the enzyme of SEQ ID NO: 1, pH 6.0” value 42%. Against it:
- B1 — higher, 43%
- B2 — higher, 58%
- B3 — higher, 88%
- B5 — higher, 84%
- B6 — higher, 81%
- B7 — higher, 61%
- B8 — higher, 59%
- B9 — higher, 87%
- B10 — higher, 85%
- B11 — higher, 108%
- B12 — higher, 54%
- B13 — higher, 101%
- B14 — higher, 49%
- B15 — lower, 31%
- B16 — lower, 8%
- B17 — higher, 107%

Same assay, conditions: pH 7.5; SEQ ID NO: 1 = 100%

Point of comparison: B11, “Specific OTA detoxification activities in % compared to the enzyme of SEQ ID NO: 1, pH 7.5” value 178%. Against it:
- B1 — lower, 107%
- B2 — lower, 94%
- B3 — lower, 126%
- B4 — lower, 33%
- B5 — lower, 78%
- B6 — lower, 120%
- B7 — lower, 96%
- B8 — lower, 80%
- B9 — lower, 78%
- B10 — lower, 90%
- B12 — lower, 92%
- B13 — lower, 124%
- B14 — lower, 73%
- B15 — lower, 95%
- B16 — lower, 52%
- B17 — lower, 101%

Assay: Enzymatic activity comparison: activity remaining after 65° C. for 10 min at pH 6.0, relative to SEQ ID NO: 1
Type: physicochemical
Conditions: not given
Experimental: To compare the temperature behavior and thermostability of selected enzymes to one another, enzyme was incubated at 65° C. for 10 min at pH 6.0. The enzymatic activity remaining after incubation was compared to the remaining activity of the enzyme of SEQ ID NO: 1 after incubation, the latter being set to 100%, see Table 16.

Point of comparison: B16, “Enzymatic activity remaining after incubation, compared to SEQ ID NO: 1 (set to 100%)” value 35%. Against it:
- B1 — higher, 71%
- B2 — higher, 100%
- B3 — lower, 27%
- B4 — higher, 39%
- B5 — higher, 40%
- B6 — lower, 15%
- B7 — lower, 27%
- B8 — higher, 40%
- B9 — higher, 42%
- B10 — lower, 23%
- B11 — higher, 38%
- B12 — lower, 21%
- B13 — higher, 36%
- B14 — lower, 16%
- B15 — higher, 62%
- B17 — higher, 45%
